Measured values: the RNAGym collection of RNA variant scans (doi:10.7554/elife.80360)

B1: HDV Ribozyme (parent)
chain: GGCCGGCAUGGUCCCAGCCUCCUCGCUGGCGCCGGCUGGGCAACAUUCCGAGGGGACCGUCCCCUCGGUAAUGGCGAAUGGGACCCA

Variants of: B1
Assay: self-cleavage, relative activity (ratio to wild type); higher = more cleavage; co-transcriptional

Variant	self-cleavage
GGCCGGCAUGGUCCCAGCCUCCUCGCUGGCGCCGCCUGGGCAACAUUCCGAGGGGACCGUCCCCUCGGUAAUGGCGAAUGGGACACA [G35C C85A]	0.213
GGCCGGCAUGGUCCCAGCCUCCUCGCUGGCGCCGCCUGGGCAACAUUCCGAGGGGACCGUCCCCUCGGUGAUGGCGAAUGGGACCCA [G35C A70G]	0.208
GGCCGGCAUGGUCCCAGCCUCCUCGCUGGCGCCGCCUGCGCAACAUUCCGAGGGGACCGUCCCCUCGGUAAUGGCGAAUGGGACCCA [G35C G39C]	0.119
GGCCGGCAUGGUCCCAGCCUCCUCGCUGGCGCCGCCUGGGCAACAUUCCGAGGGGACCGUCCCCUCGGUAAUGGCGAAUGGGCCCCA [G35C A83C]	0.162
GGCCGGCAUGGUCCCAGCCUCCUCGCUGGCGCCGCCUGGGCAACAUUCCGAGGGGACCGUCCCCUCGGUAAUGGCGAAUGGGGCCCA [G35C A83G]	0.237
GGCCGGCAUGGUCCCAGCCUCCUCGCUGGCGCCGACUGGGCAACAUUCCGAGGGGACCGUCCCCUCGGUAAUGGCAAAUGGGACCCA [G35A G76A]	0.709
GGCCGGCAUGGUCCCAGCCUCCUCGCUGGCGCCGACUGGGCAACAUUCCGAGGGGACCGUCCCCUCGGUAACGGCGAAUGGGACCCA [G35A U72C]	0.283
GGCCGGCAUGGUCCCAGCCUCCUCGCUGGCGCCGCCUGGGCAACAUUCCGAGGCGACCGUCCCCUCGGUAAUGGCGAAUGGGACCCA [G35C G54C]	0.17
GGCCGGCAUGGUCCCAGCCUCCUCGCUGGCGCCGCCUGGGCAACAUUCCGAGGGGACCGUCCCCUCGGUAAUGGCGAAUGGGACCCU [G35C A87U]	0.208
GGCCGGCAUGGUCCCAGCCUCCUCGCUGGCGCCGCCUGGGCAACAUUCCGAGGGGACCGUCCGCUCGGUAAUGGCGAAUGGGACCCA [G35C C63G]	0.0449
GGCCGGCAUGGUCCCAGCCUCCUCGCUGGCGCCGACUCGGCAACAUUCCGAGGGGACCGUCCCCUCGGUAAUGGCGAAUGGGACCCA [G35A G38C]	0.0652
GGCCGGCAUGGUCCCAGCCUCCUCGCUGGCGCCGCCUGGGCAACAUUCCGAGGGGACCGUCCCCUCGUUAAUGGCGAAUGGGACCCA [G35C G68U]	0.305
GGCCGGCAUGGUCCCAGCCUCCUCGCUGGCGCCGCCUGGGCAACAUUCCGAGGGGACCGUGCCCUCGGUAAUGGCGAAUGGGACCCA [G35C C61G]	0.217
GGCCGGCAUGGUCCCAGCCUCCUCGCUGGCGCCGCCUGGGCAACAUUCCGAGGGGACGGUCCCCUCGGUAAUGGCGAAUGGGACCCA [G35C C58G]	0.161
GGCCGGCAUGGUCCCAGCCUCCUCGCUGGCGCCGCCUGGGCAACAUUCCGAGGGGACUGUCCCCUCGGUAAUGGCGAAUGGGACCCA [G35C C58U]	0.231
GGCCGGCAUGGUCCCAGCCUCCUCGCUGGCGCCGCCUGGGCAACAUUCCGAGGGGUCCGUCCCCUCGGUAAUGGCGAAUGGGACCCA [G35C A56U]	0.232

Variant	self-cleavage
GGCCGGCAUGGUCCCAGCCUCCUCGCUGGCGCCGCCUGGGCAACAUUCCGAGGGGGCCGUCCCCUCGGUAAUGGCGAAUGGGACCCA [G35C A56G]	0.128
GGCCGGCAUGGUCCCAGCCUCCUCGCUGGCGCCGCCUGGUCAACAUUCCGAGGGGACCGUCCCCUCGGUAAUGGCGAAUGGGACCCA [G35C G40U]	0.145
GGCCGGCAUGGUCCCAGCCUCCUCGCUGGCGCCGCCUGGGCAACAUUCCGAGGGGACCGUCCCCUCAGUAAUGGCGAAUGGGACCCA [G35C G67A]	0.148
GGCCGGCAUGGUCCCAGCCUCCUCGCUGGCGCCGCCUGGGCCACAUUCCGAGGGGACCGUCCCCUCGGUAAUGGCGAAUGGGACCCA [G35C A42C]	0.107
GGCCGGCAUGGUCCCAGCCUCCUCGCUGGCGCCGCCUGGGCGACAUUCCGAGGGGACCGUCCCCUCGGUAAUGGCGAAUGGGACCCA [G35C A42G]	0.192
GGCCGGCAUGGUCCCAGCCUCCUCGCUGGCGCCGACUGGGCAACAUUCCGAGGGGACCGUCCCCGCGGUAAUGGCGAAUGGGACCCA [G35A U65G]	0.554
GGCCGGCAUGGUCCCAGCCUCCUCGCUGGCGCCGCCUGGGCAACAUUCCGAGGGGACCGUCCCCUCGGUAAUGGGGAAUGGGACCCA [G35C C75G]	0.391
GGCCGGCAUGGUCCCAGCCUCCUCGCUGGCGCCGACUGGGCAACAUUCCGAGGGGACCGUCCCCUCGGUAAUGGCGAAUGGUACCCA [G35A G82U]	0.241
GGCCGGCAUGGUCCCAGCCUCCUCGCUGGCGCCGCCUGGGCAACAUUACGAGGGGACCGUCCCCUCGGUAAUGGCGAAUGGGACCCA [G35C C48A]	0.269
GGCCGGCAUGGUCCCAGCCUCCUCGCUGGCGCCGCCUGGGCAUCAUUCCGAGGGGACCGUCCCCUCGGUAAUGGCGAAUGGGACCCA [G35C A43U]	0.0386
GGCCGGCAUGGUCCCAGCCUCCUCGCUGGCGCCGCCUGGGGAACAUUCCGAGGGGACCGUCCCCUCGGUAAUGGCGAAUGGGACCCA [G35C C41G]	0.161
GGCCGGCAUGGUCCCAGCCUCCUCGCUGGCGCCGCCUGGGAAACAUUCCGAGGGGACCGUCCCCUCGGUAAUGGCGAAUGGGACCCA [G35C C41A]	0.237
GGCCGGCAUGGUCCCAGCCUCCUCGCUGGCGCCGCCUGGGCAAGAUUCCGAGGGGACCGUCCCCUCGGUAAUGGCGAAUGGGACCCA [G35C C44G]	0.145
GGCCGGCAUGGUCCCAGCCUCCUCGCUGGCGCCGACUGGGCAACAUUCCGAGGGCACCGUCCCCUCGGUAAUGGCGAAUGGGACCCA [G35A G55C]	0.358
GGCCGGCAUGGUCCCAGCCUCCUCGCUGGCGCCGACUGGGCAACAUUCCGAGGGGACCGUCCCCUCGGUAAUGGAGAAUGGGACCCA [G35A C75A]	0.151
GGCCGGCAUGGUCCCAGCCUCCUCGCUGGCGCCGACUGGGCAACAUUCCGAGGGGACCGUCCCCUCGGUAAUGGUGAAUGGGACCCA [G35A C75U]	0.133
